{"source": "patent US20040167074A1", "about": "“Therapeutic applications of mFLINT polypeptides” (priority 1998, published 2004)", "key": {"B16 melanoma cells": {"test_system": "B16 melanoma cells", "test": "B16 melanoma subcutaneous tumor growth", "assay_type": "in vivo", "details": "days 4-13", "description": "Tumor response was monitored by tumor volume measurements as determined by caliper measurements of two dimensions of the tumors on days 4, 8, 11, 17, 21, 25, 30 and 34. Tumor volume was calculated as a hemi-ellipsoid. The animals were weighed on the same schedule described above."}, "osteoclasts": {"test_system": "osteoclasts", "test": "Murine osteoclast differentiation assay (TRAP staining)", "assay_type": "cell-based, mouse", "details": "mean and standard error of 6 wells", "description": "Male Balb/C mice (4-8 weeks old) were euthanized with CO2, the femurs removed, and the marrow flushed out of the femurs with growth medium. Bone marrow cells were pelleted by centrifugation at 500×g for 6 min. and resuspended in the growth medium (RPMI 1640 plus 5% heat inactivated fetal bovine-serum and 1% antibiotic-antimycotic solution). The marrow population (5×10^4 cells/cm^2) was seeded in tissue culture dishes in which BALC cells (a stable cell line derived from neonatal mouse calvariae, 1.5×10^4 cells/cm^2) had been plated 2 h prior to addition of bone marrow. The cells were cultured for 7 days in a humidified incubator at 37° C. with 5% CO2 with medium changes on days 3 and 5. Cultures were treated with or without 10^−8M 1,25-(OH)2D3 on days 0, 3, and 5. In addition, -the cells were treated with or without secreted mFLINT protein purified from the conditioned medium of cells transfected with mFLINT gene (FIG. 1). Following 7 days of culture, the cells in 24-well cluster dishes were fixed with formalin (3.7% for 10 min) and then stained for tartrate-resistant acid phosphatase (TRAP) using a modification of the method described by Graves, L and Jilka R L, J Cell Physiology 145:102 1990. The number of osteoclasts (TRAP-positive cells containing 3 or more nuclei) was quantitated."}, "[1]": {"test_system": "bone marrow progenitor cells", "test": "CFU assay of bone marrow cells expanded in vitro with SCF and IL-6", "assay_type": "cell-based, mouse", "details": "FIG. 9, mFLINT 1 ug/ml, 3 days with SCF and IL-6", "description": "A—Bone marrow cells from irradiated mice—This experiment was designed to determine whether mFLINT could improve the recovery of murine hematopoietic progenitor cells from irradiation, by forcing in vitro expansion with hematopoietic cytokines. Mice were injected with 3 mg of 5-flouro-uracil, i.p., and four days later, femurs were removed and flushed to isolate bone marrow (BM) cells. 1×10^6 BM cells were seeded in each well of a 24 well tray in triplicate in Iscoves modified dulbeccos media (IMDM)+10% FBS and were stimulated for 3 days with the cytokines stem cell factor (SCF) and IL-6, in the presence or absence of mFLINT (1 ug/ml). After a 3-day in vitro expansion period, 5×10^3 cells were plated out in triplicate for the CFU assay."}, "bone marrow cells": {"test_system": "bone marrow cells", "test": "Viable cell count of bone marrow cells from 5-FU treated mice after cytokine expansion", "assay_type": "cell-based, mouse", "details": "FIG. 10; 3 days with SCF and IL-6; mFLINT 1 ug/ml, anti-FasL 1 ug/ml, FasL 0.15 ug/ml; control 3,300", "description": "Following a 3 day in vitro expansion period with cytokines, viable cells are counted and used to set up a CFU assay. If mFLINT or anti-FasL antibody protects progenitor cells from apoptosis, one would expect a greater number of colonies in these groups for the CFU assay. […] The values were: control cells: 3,300; FasL-treated cells: 3,000; anti-FasL-treated cells: 4,200; mFLINT-treated cells: 4,900."}}}
{"molecule": "mFLINT: mature FLINT without leader peptide (FIG. 3), soluble TNFR superfamily member, made according to Examples 8 and 9 (protein, glycosylated) VAETPTYPWRDAETGERLVCAQCPPGTFVQRPCRRDSPTTCGPCPPRHYTQFWNYLERCRYCNVLCGEREEEARACHATHNRACRCRTGFFAHAGFCLEHASCPPGAGVIAPGTPSQNTQCQPCPPGTFSASSSSSEQCQPHRNCTALGLALNVPGSSSHDTLCTSCTGFPLSTRVPGAEECERAVIDFVAFQDISIKRLQRLLQALEAPEGWGPTPRAGRAALQLKLRRRLTELLGAQDGALLVRLLQALRVARMPGLERSVRERFLPVH", "values": [{"measurement": "day tumors reached a volume of 500 mm^3", "setting": "B16 melanoma cells; 50 μg/injection iv once daily", "value": "19.3 ± 0.3", "unit": "days"}, {"measurement": "day tumors reached a volume of 1000 mm^3", "setting": "B16 melanoma cells; 50 μg/injection iv once daily", "value": "23.0 ± 0.4", "unit": "days"}, {"measurement": "tumor growth delay", "setting": "B16 melanoma cells; 50 μg/injection iv once daily", "value": 1.8, "unit": "days"}, {"measurement": "tumor volume after 20 days", "setting": "B16 melanoma cells; FIG. 8, 50 μg/injection iv, control approximately 1000 mm^3", "value": "approximately 730 mm^3"}, {"measurement": "Osteoclasts/well", "setting": "osteoclasts; FLINT 0.01 ng/ml, control 145.50", "value": "40.50 ± 2.39", "unit": "Osteoclasts/well"}, {"measurement": "Osteoclasts/well", "setting": "osteoclasts; FLINT 0.10 ng/ml", "value": "65.50 ± 3.33", "unit": "Osteoclasts/well"}, {"measurement": "Osteoclasts/well", "setting": "osteoclasts; FLINT 1.00 ng/ml", "value": "97.50 ± 3.10", "unit": "Osteoclasts/well"}, {"measurement": "Osteoclasts/well", "setting": "osteoclasts; FLINT 10.00 ng/ml", "value": "170.17 ± 8.26", "unit": "Osteoclasts/well"}, {"measurement": "Osteoclasts/well", "setting": "osteoclasts; FLINT 100.00 ng/ml", "value": "335.00 ± 8.90", "unit": "Osteoclasts/well"}, {"measurement": "CFU-GEMM colonies", "setting": "[1]; control 750, p<0.007", "value": "3,000 colonies/3×10^6 stimulated BM cells"}, {"measurement": "CFU-GM colonies", "setting": "[1]; control 8,000, p<0.039", "value": "15,000 colonies/3×10^6 stimulated BM cells"}, {"measurement": "CFU-E colonies", "setting": "[1]; control 15,000, p<0.003", "value": "33,000 colonies/3×10^6 stimulated BM cells"}, {"measurement": "bone marrow cell count", "setting": "bone marrow cells", "value": "4,900 ×1000"}]}
